Patent US20040161809

Molecular target: Staphylococcus aureus thioredoxin (Trx) (UniProt P0A0K6)
Sequence (P0A0K6 whole entry): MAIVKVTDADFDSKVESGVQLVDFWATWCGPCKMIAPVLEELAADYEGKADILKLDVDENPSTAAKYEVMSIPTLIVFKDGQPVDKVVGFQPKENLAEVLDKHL

## Staphylococcus aureus thioredoxin reductase (TrxB)
  A412 (DTNB titration of free SH groups formed in insulin), complete reaction: NADPH + Trx + TrxB + insulin: 0.816 A412
  A412 (DTNB titration of free SH groups formed in insulin), control with NADPH omitted: Trx + TrxB + insulin: 0.15 A412
  A412 (DTNB titration of free SH groups formed in insulin), control with Trx omitted: NADPH + TrxB + insulin: 0.493 A412
